{"source": "patent US20090148861A1", "about": "(SALK INSTITUTE, published 2009)", "molecules": {"B1": {"name": "Kir2.1L-E303K (other, mouse, UniProt P35561 44-64, looked up)", "chain": "RSRFVKKDGHCNVQFINVGEKRNETLVFSHNAVIAMRDGKLCLMWRVGNLRKSHLVEAHVRAQLLKSRITSEGEYIPLDQIDINVGFDSGIDRIFLVSPITIVHEIDEDSPLYDLSKQDIDNADFEIVVILEGMVKATAMTTQCRSSYLANEILWGHRYEPVLFEEKHYYKVDYSRFHKTYEVPNTPLCSARDLAEKKYILSNANSFCYENEVALTSKEEEEDSENGVPESTSTDSPPGIDLHNQASVPLEPRPLRRESEI", "notes": "range 44-64;range 189-428; Same construct as Kir2.1L; also called E303KL"}, "B2": {"name": "Kir2.1L-R218Q/T309R (other, mouse, UniProt P35561 44-64, looked up)", "chain": "B1 chain with R51Q, K136E, T142R", "notes": "range 44-64;range 189-428; Same construct as Kir2.1L; also called R218Q/T309RL"}, "B3": {"name": "Kir2.1L-G300V (other, mouse, UniProt P35561 44-64, looked up)", "chain": "B1 chain with G133V, K136E", "notes": "range 44-64;range 189-428; Same construct as Kir2.1L; also called G300VL"}, "B4": {"name": "Kir2.1L-R218Q/T309K (other, mouse, UniProt P35561 44-64, looked up)", "chain": "B1 chain with R51Q, K136E, T142K", "notes": "range 44-64;range 189-428; Same construct as Kir2.1L; also called R218Q/T309KL"}, "B5": {"name": "Kir2.1S-R218Q/T309K, N-terminal (44-64) fused to C-terminal (189-371) of mouse Kir2.1 (other, UniProt P35561 44-64, looked up)", "chain": "RSRFVKKDGHCNVQFINVGEKRNETLVFSHNAVIAMRDGKLCLMWRVGNLQKSHLVEAHVRAQLLKSRITSEGEYIPLDQIDINVGFDSGIDRIFLVSPITIVHEIDEDSPLYDLSKQDIDNADFEIVVILEGMVEATAMTKQCRSSYLANEILWGHRYEPVLFEEKHYYKVDYSRFHKTYEVPNTPLCSARDLAEKKYILSNA", "notes": "range 44-64;range 189-371; Crystallised form (2.0 A, space group C2, one tetramer per asymmetric unit); also called R218Q/T309KS; R218Q/T309Ks"}}, "key": {"[1]": {"target": "GIRK4* L252A mutant channel", "assay": "cell-based or functional assay"}, "[2]": {"target": "GIRK2 Y349W mutant channel", "assay": "cell-based or functional assay"}, "[3]": {"target": "GIRK2c channel, wild type", "assay": "cell-based or functional assay"}, "[4]": {"target": "GIRK2 L257W mutant channel", "assay": "cell-based or functional assay"}, "[5]": {"target": "GIRK2 L257Y mutant channel", "assay": "cell-based or functional assay"}, "[6]": {"target": "GIRK4* L252W mutant channel", "assay": "cell-based or functional assay"}, "[7]": {"target": "GIRK4* L252Y mutant channel", "assay": "cell-based or functional assay"}, "[8]": {"target": "GIRK2 L257A mutant channel", "assay": "cell-based or functional assay"}, "[9]": {"target": "GIRK4 S143T mutant channel", "assay": "cell-based or functional assay"}, "[10]": {"target": "the molecule itself", "assay": "S200 Sepharose size chromatography; self-association of the cytoplasmic domains into a tetramer", "description": "(§1) Kir2.1 mutants were grown in Terrific Broth at 37 degrees C. to the OD600 of 0.6, then induced with 0.5 mM IPTG for 3 hours prior to harvesting. Cells were lysed in 0.5M NaCl, 20 mM Tris-HCl pH 8.5, 10% glycerol, 7 mM beta-mercaptoethanol, 0.1 mM PMSF, 10 mM imidazole and 0.5 mg lysozyme per 100 ml of lysate. The lysate was sonicated and spun at 94,000 G for 45 minutes. The supernatant was loaded on a 2 ml-packed nickel affinity column (Qiagen), washed with 5 ml of lysis buffer without PMSF, and then eluted with lysis buffer with 250 mM imidazole. Thrombin was added to the eluted fraction and it was dialyzed against the sizing column buffer, 150 mM NaCl, 5 mM Tris-HCl pH 8.5, 2 mM DTT. Kir2.1 was then purified by S200 Sepharose chromatography and concentrated to 10 mg/ml with 10 mM DTT. Kir2.1 proteins were loaded on a G4000PWXL HPLC column (TOSOH) equilibrated in 150 mM NaCl, 5 mM Tris-HCl 8.5, 2 mM DTT. Molecular weight (MW) of the tetramer complex was calculated by Minidawn static light scattering requiring the use of the extinction coefficient of the monomer. The extinction coefficient was derived from the primary sequence of the protein. […]"}, "[11]": {"target": "the molecule itself", "assay": "sizing column; self-association into a tetramer", "description": "Kir2.1 mutants were grown in Terrific Broth at 37 degrees C. to the OD600 of 0.6, then induced with 0.5 mM IPTG for 3 hours prior to harvesting. Cells were lysed in 0.5M NaCl, 20 mM Tris-HCl pH 8.5, 10% glycerol, 7 mM beta-mercaptoethanol, 0.1 mM PMSF, 10 mM imidazole and 0.5 mg lysozyme per 100 ml of lysate. The lysate was sonicated and spun at 94,000 G for 45 minutes. The supernatant was loaded on a 2 ml-packed nickel affinity column (Qiagen), washed with 5 ml of lysis buffer without PMSF, and then eluted with lysis buffer with 250 mM imidazole. Thrombin was added to the eluted fraction and it was dialyzed against the sizing column buffer, 150 mM NaCl, 5 mM Tris-HCl pH 8.5, 2 mM DTT. Kir2.1 was then purified by S200 Sepharose chromatography and concentrated to 10 mg/ml with 10 mM DTT. Kir2.1 proteins were loaded on a G4000PWXL HPLC column (TOSOH) equilibrated in 150 mM NaCl, 5 mM Tris-HCl 8.5, 2 mM DTT. Molecular weight (MW) of the tetramer complex was calculated by Minidawn static light scattering requiring the use of the extinction coefficient of the monomer. The extinction coefficient was derived from the primary sequence of the protein.\nTo understand the nature of the mildly-aggregating R218Q, it was reasoned that changing the Thr309 to a positive charge residue would restore a polar interaction similar to the native one present in Kir2.1 between Arg218 and Thr309 (FIG. 2C). […]"}, "[12]": {"target": "the molecule itself", "assay": "size chromatography of the cytoplasmic domains; homotetramer", "description": "as §1"}, "[13]": {"target": "the molecule itself", "assay": "X-ray crystal structure at 2.0 A; homotetramer"}}, "note": "Changes are numbered by the printed parent chain. Names may count otherwise."}
{"molecule": "G-protein beta-gamma subunits", "values": [{"measurement": "Carb activation as percent of basal current, whole-cell patch clamp", "setting": "[1]", "value": 51, "unit": "%"}, {"measurement": "percent change from basal current on Carbachol, whole-cell patch clamp", "setting": "[2]", "value": 56, "unit": "%"}, {"measurement": "percent change from Ba++ sensitive basal current on 5 uM Carbachol (M2R co-transfected), whole-cell patch clamp", "setting": "[3]", "value": 928, "unit": "%"}, {"measurement": "percent change from basal current on Carbachol, whole-cell patch clamp", "setting": "[4]", "value": 12, "unit": "%"}, {"measurement": "percent change from basal current on Carbachol, whole-cell patch clamp", "setting": "[5]", "value": 38, "unit": "%"}, {"measurement": "Carb activation as percent of basal current, whole-cell patch clamp", "setting": "[6]", "value": 23, "unit": "%"}, {"measurement": "Carb activation as percent of basal current, whole-cell patch clamp", "setting": "[7]", "value": 110, "unit": "%"}, {"measurement": "percent change from basal current on Carbachol, whole-cell patch clamp", "setting": "[8]", "value": 36, "unit": "%"}, {"measurement": "Carb activation as percent of basal current, whole-cell patch clamp (% of basal current)", "setting": "[9]", "value": 231}]}
{"molecule": "B1", "values": [{"measurement": "binding result", "setting": "[10]", "value": "binds"}]}
{"molecule": "B2", "values": [{"measurement": "binding result", "setting": "[11]", "value": "binds"}]}
{"molecule": "B3", "values": [{"measurement": "binding result", "setting": "[12]", "value": "binds"}]}
{"molecule": "B4", "values": [{"measurement": "binding result", "setting": "[11]", "value": "binds"}]}
{"molecule": "B5", "values": [{"measurement": "binding result", "setting": "[13]", "value": "binds"}]}
